Results on four molecules are retold here after publication PMC6141180 (2018).

Usually IC50 stands for the concentration that gives 50% inhibition. Read a high IC50 as lower potency. What is called Kd is a measure of binding affinity in units of concentration. A higher Kd goes with lower affinity.

Test [1] deals with T1, p38α (MAPK14), nonphosphorylated (mouse, UniProt P47811 1-360). As to the kind of experiment: FP; displacement of fluorescein-labeled MKK3b peptide.
In test [2] the target is T2, dual (pThr180, pTyr182) phosphorylated p38α (mouse, UniProt P47811 1-360, phosphothreonine at 180, phosphotyrosine at 182). As to the kind of experiment: ITC; p38α dually phosphorylated.
For test [3], the target named is T1, p38α (MAPK14), nonphosphorylated. The test is described as follows: ITC. In general terms: Isothermal titration calorimetry measures the heat released or taken up as one component is titrated into another.
The target in test [4] is T2, dual (pThr180, pTyr182) phosphorylated …. The test is described as follows: ITC; p38α dually phosphorylated; TAB1 pSer423.

T1 sequence (P47811 whole entry): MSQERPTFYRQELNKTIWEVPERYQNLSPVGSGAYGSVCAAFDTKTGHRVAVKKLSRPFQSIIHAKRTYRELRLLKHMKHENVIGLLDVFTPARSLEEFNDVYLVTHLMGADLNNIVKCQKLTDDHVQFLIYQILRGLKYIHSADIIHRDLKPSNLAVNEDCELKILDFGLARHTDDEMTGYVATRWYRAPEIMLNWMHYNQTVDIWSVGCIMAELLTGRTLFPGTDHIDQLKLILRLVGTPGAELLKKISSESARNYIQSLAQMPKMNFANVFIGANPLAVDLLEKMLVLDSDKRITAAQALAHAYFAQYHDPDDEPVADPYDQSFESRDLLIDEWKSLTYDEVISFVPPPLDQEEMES
T2 sequence (P47811 whole entry): as above

Consider Ac-GKSKRKKDLRISCMSKP-NH2 [MKK3b peptide, unlabeled], for which the IC50 in test [1] turned out to be 15 µM. That is a double-digit micromolar value.

Consider Ac-RVYPVSVPYSSAQSTSKTSVTLSLVMPSQ-NH2 [TAB1 (residues 384–412) peptide], for which the Kd in test [2] was found to be 2 µM; in test [3], 2.9 µM. Besides, the IC50 in test [1] stood at 11 µM.

B1: TAB1 (residues 1–438) (domain or fragment)
chain: MAAQRRSLLQSEQQPSWTDDLPLCHLSGVGSASNRSYSADGKGTESHPPEDNWLKFRSENNCFLYGVFNGYDGNRVTNFVAQRLSAELLLGQLNTEHTEADVRRVLLQAFDVVERSFLESIDDALAEKASLQSQLPEGVPQHQLPPQYQKILERLKALEREISGGAMAVVAVLLNSKLYVANVGTNRALLCKSTVDGLQVTQLNMDHTTENEDELFRLSQLGLDAGKIKQMGVICGQESTRRIGDYKVKYGYTDIDLLSAAKSKPIIAEPEIHGAQPLDGVTGFLVLMSEGLYKALEAAHGPGQANQEIAAMIDTEFAKQTSLDAVAQAVVDRVKRIHSDTFASGGERAKFCPRHEDMTLLVRNFGYPLGEMSQPTPTPAPGGRVYPVSVPYSSAQSTSKTSVTLSLVMPSQGQMVNGSHSASTLDEATPTLTNQSPT
On to B1, for which binding in test [3] was put at a Kd of 1.5 µM.

B2: TAB1 (residues 1–438) phosphorylated at Serine 423 (domain or fragment)
chain: B1 chain
modifications: phosphoserine at 423
In test [4], B2 came in with a Kd of 1.7 µM.
